Measurements as given in patent US20070049521A1.

What was measured:
[1] = target: NPR-C on ATDC5 cells (mouse chondrogenic cell line) (mouse) (UniProt P70180); test: displacement of 125I-Ostn[83-133] from ATDC5 cells
[2] = target: human NPR-C (natriuretic peptide receptor C, clearance receptor), overexpressed on HEK293 cells (human) (UniProt P17342); test: cell-based or functional assay
Sequence of human NPR-C (natriuretic peptide receptor C, clearance receptor), overexpressed on HEK293 cells (human) (P17342 27-541): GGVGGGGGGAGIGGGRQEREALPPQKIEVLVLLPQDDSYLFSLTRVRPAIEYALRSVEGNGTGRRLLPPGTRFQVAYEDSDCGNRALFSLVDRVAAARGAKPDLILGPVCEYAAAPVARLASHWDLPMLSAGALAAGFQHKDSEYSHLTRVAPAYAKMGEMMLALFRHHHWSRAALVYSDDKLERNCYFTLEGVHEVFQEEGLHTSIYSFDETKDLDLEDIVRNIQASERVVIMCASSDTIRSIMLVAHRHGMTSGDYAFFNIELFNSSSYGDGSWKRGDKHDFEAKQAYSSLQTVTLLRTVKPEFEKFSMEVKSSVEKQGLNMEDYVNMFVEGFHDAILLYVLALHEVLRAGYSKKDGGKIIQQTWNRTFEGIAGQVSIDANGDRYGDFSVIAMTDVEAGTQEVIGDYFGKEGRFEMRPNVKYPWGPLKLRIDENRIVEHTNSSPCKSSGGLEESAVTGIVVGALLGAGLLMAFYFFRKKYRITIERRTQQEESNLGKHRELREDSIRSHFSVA

Sequence of NPR-C on ATDC5 cells (mouse chondrogenic cell line) (mouse) (P70180 41-536): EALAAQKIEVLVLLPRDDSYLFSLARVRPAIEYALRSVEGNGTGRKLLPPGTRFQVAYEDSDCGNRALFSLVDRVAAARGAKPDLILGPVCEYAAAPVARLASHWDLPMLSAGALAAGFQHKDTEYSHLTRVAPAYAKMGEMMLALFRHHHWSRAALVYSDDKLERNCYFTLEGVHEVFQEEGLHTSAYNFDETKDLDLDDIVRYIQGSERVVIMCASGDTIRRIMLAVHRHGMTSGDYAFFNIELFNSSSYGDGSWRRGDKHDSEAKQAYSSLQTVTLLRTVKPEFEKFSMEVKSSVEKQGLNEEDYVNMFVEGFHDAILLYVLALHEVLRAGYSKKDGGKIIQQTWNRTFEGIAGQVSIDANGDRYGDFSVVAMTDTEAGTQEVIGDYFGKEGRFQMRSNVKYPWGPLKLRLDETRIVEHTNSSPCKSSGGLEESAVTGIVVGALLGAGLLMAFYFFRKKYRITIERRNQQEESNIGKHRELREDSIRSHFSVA

IC50 [1]	maximal inhibition at 1 µM, difference from that of cold Ostn[83-133] [1]	cGMP levels of NPR-C-expressing HEK293 cells with 0.1 nM ANP and 10 nM rhOstn[27-133] [2]	Substance
6.7 nM	15 % less	–	rat C-ANF (peptide)
–	–	8 fold	N-terminal 6 histidine-tagged recombinant human Ostn rhOstn[27-133] (from UniProt G7NYP9 27-133) (ligand)
